Biological target: MBP-M18BP1^1-140-8His (Homo sapiens (Human), UniProt Q6P0N0)
Assay: amylose-resin pull-down, CBB-stained gel; Mis18β Yippee domain alone does not bind; binding requires the Mis18α:Mis18β Yippee heterodimer (Mis18α Yippee domain present)

MBP-M18BP1^1-140-8His, sequence (Q6P0N0 1-140, one chain of several): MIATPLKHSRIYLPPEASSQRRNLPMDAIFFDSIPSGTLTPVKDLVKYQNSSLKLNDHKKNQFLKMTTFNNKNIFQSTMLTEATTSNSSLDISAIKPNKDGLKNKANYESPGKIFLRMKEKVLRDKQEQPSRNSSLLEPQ

B1: 6His-Mis18β^73-189 (protein)
chain: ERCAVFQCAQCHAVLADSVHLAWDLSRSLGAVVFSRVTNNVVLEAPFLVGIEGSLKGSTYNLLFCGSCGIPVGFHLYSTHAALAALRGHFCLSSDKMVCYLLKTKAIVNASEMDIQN
B1: no binding.

From paper PMC5245964 (2017)
